The values that follow come from US20090318673A1 (NEC SOFT, published 2009).

The data set concerns the molecule itself. The data set is described as follows: X-ray crystal structure, 1.9 A, space group C2221. An excerpt: Programs, MOSFLM and SCALA (CCP4) were used in the data processing of the detected diffraction pattern and intensity data.

B1: GFP-like fluorescent protein from Chiridius poppei, CpYGFP (recombinant, wild type) (other)
chain: MTTFKIESRIHGNLNGEKFELVGGGVGEEGRLEIEMKTKDKPLAFSPFLLSHCMGYGFYHFASFPKGTKNIYLHAATNGGYTNTRKEIYEDGGILEVNFRYTYEFNKIIGDVECIGHGFPSQSPIFKDTIVKSCPTVDLMLPMSGNIIASSYARAFQLKDGSFYTAEVKNNIDFKNPIHESFSKSGPMFTHRRVEETHTKENLAMVEYQQVFNSAPRDM
modifications: G55-Y56-G57 cyclised and oxidised to the p-hydroxybenzylideneimidazolinone fluorescent moiety
notes: Expressed in E. coli from pET101-NFP, purified and crystallised; In the crystal (space group C2221, PDB 2DD7) it is seen as a dimer; also called recombinant CpYGFP; wild-type CpYGFP
Regarding B1, the binding result is “binds”.
